US6010851A, “Method for producing nucleoside-5'-phosphate ester” (Ajinomoto Co., Inc., priority 1995, dated 2000)

How the values were obtained:
[1] = Phosphomonoesterase activity (inosine produced by hydrolysis of 5'-inosinic acid); type: biochemical; conditions: purified Escherichia blattae enzyme
Experimental: The phosphomonoesterase activity was measured under the following condition using 5'-inosinic acid as a substrate. The reaction was performed at 30° C. for 10 minutes in a reaction solution (1 ml) containing 10 μmol/ml of 5'-inosinic acid, 100 μmol/ml of MES/NaOH buffer (pH 6.0), and an enzyme. The reaction was stopped by adding 200 μl of 2 N hydrochloric acid. After that, precipitates were removed by centrifugation. Then, inosine produced by the hydrolytic reaction was quantitatively measured. An amount of enzyme to produce 1 μmol of inosine per 1 minute under this standard reaction condition was defined as 1 unit.
Inosine and 5'-inosinic acid were analyzed under the following condition by means of high-performance liquid chromatography (HPLC).

[2] = Properties of the purified acid phosphatase derived from Escherichia blattae; design: species or system Escherichia blattae JCM 1650
Experimental: A nutrient medium (pH 7.0, 50 ml) containing 1 g/dl of peptone, 0.5 g/dl of yeast extract, and 1 g/dl of sodium chloride was poured into Sakaguchi flasks (500 ml), which was sterilized at 120° C. for 20 minutes. A slant culture of Escherichia blattae JCM 1650 was inoculated to each of the flasks once with a platinum loop, which was cultivated at 30° C. for 16 hours with shaking. Microbial cells were harvested from a culture by centrifugation. The microbial cells (about 3,300 g) were suspended in 100 mM potassium phosphate buffer (1 L, pH 7.0). A ultrasonic treatment was performed at 4° C. for 20 minutes to disrupt the microbial cells. The treated suspension was centrifuged to remove its insoluble fraction. Thus a cell-free extract was prepared.
The purified enzyme had the following properties.

B1: acid phosphatase derived from Escherichia blattae: enzyme purified from cell-free extract of Escherichia blattae JCM 1650; mature protein SEQ ID NO: 11 (protein)
chain: LALVATGNDTTTKPDLYYLKNSEAINSLALLPPPPAVGSIAFLNDQAMYEQGRLLRNTERGKLAAEDANLSSGGVANAFSGAFGSPITEKDAPALHKLLTNMIEDAGDLATRSAKDHYMRIRPFAFYGVSTCNTTEQDKLSKNGSYPSGHTSIGWATALVLAEINPQRQNEILKRGYELGQSRVICGYHWQSDVDAARVVGSAVVATLHTNPAFQQQLQKAKAEFAQHQKK
- phosphate ester hydrolytic activity (phosphomonoesterase activity) relative to transphosphorylation activity [1]: not less than 30 times
- Optimum temperature [2]: about 35 °C
- Optimum pH ([2]; phosphate ester hydrolytic reaction): 6.5
- Optimum pH ([2]; transphosphorylation reaction): 5.2
- Temperature stability ([2]; treatment at pH 7.0 for 30 minutes): up to 40 °C
